Assay results: patent publication US20240400659A1 (BIOATLA, published 2024)

Tests used:
mouse ApoE [1] = target: T1, mouse ApoE (mouse, UniProt P08226 19-311, limits assumed); assay: pH affinity ELISA, coated mouse ApoE
T1 construct: also called msApoE; ms ApoE
T1 sequence (looked up): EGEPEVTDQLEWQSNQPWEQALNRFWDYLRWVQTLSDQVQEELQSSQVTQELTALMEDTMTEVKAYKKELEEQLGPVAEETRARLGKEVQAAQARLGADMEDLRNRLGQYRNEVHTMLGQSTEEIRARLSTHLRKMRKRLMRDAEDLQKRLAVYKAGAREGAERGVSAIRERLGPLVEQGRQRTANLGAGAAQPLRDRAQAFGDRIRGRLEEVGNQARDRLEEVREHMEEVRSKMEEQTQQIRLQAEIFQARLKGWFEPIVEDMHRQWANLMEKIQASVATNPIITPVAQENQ

Apolipoprotein E4 [2] = target: T2, Apolipoprotein E4 (human, UniProt P02649 19-317); assay: pH affinity ELISA, coated hApoE4, pH 6.0
T2 construct: also called ApoE4; hApoE4

Apolipoprotein E4 [3] = target: T2, Apolipoprotein E4; assay: pH affinity ELISA, coated hApoE4, pH 7.4
mouse ApoE [4] = target: T1, mouse ApoE; assay: pH affinity ELISA, coated mouse ApoE, pH 7.4
Apolipoprotein E3 [5] = target: T3, Apolipoprotein E3 (human, UniProt P02649 19-317); assay: pH affinity ELISA, coated hApoE3, pH 7.4
T3 construct: also called ApoE3; hApoE3

Apolipoprotein E3 [6] = target: T3, Apolipoprotein E3; assay: pH affinity ELISA, coated hApoE3
Apolipoprotein E4 [7] = target: T2, Apolipoprotein E4; assay: pH affinity ELISA, coated hApoE4
mouse ApoE [8] = target: T1, mouse ApoE; assay: pH affinity ELISA, coated mouse ApoE, pH 6.0
Apolipoprotein E3 [9] = target: T3, Apolipoprotein E3; assay: pH affinity ELISA, coated hApoE3, pH 6.0

T3 sequence (P02649 19-317 limits assumed): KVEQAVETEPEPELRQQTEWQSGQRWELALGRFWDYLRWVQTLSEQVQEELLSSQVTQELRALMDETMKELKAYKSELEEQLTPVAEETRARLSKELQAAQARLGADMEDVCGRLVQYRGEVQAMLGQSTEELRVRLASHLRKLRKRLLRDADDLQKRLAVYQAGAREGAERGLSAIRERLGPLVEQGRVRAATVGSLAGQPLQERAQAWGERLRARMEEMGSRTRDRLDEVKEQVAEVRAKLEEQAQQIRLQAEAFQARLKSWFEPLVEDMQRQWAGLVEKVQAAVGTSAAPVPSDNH
T2 sequence (P02649 19-317 C130R limits assumed): as the sequence (P02649 19-317 limits assumed) above, with C112R counted along it

B1: Anti-ApoE wildtype antibody BAP191.01-WT (antibody, V domains shown)
VH: QIQLVQSGPELKKPGETVKISCKASGYTFTTAGMQWVQKMPGKGFKWIGWINTHSGEPKYAEDFKGRFAFSLETSASTAYLQISNLKNEDTATYFCARMGGYAMDYWGQGTSVTVSS
VL: DIKLTQSPSSMYASLGERVTITCKASEDINSYLSWFQQKPGKSPKTLIYRANRLVDGVPSRFSGSGSGQDYSLTISSLEYEDMGIYYCLQYDEFPLTFGAGTKLELT
notes: also called benchmark; parent
Ratio pH 7.4/6.0 (EC50) (mouse ApoE [1]): 0.96 ratio | EC50 (Apolipoprotein E4 [2]): 0.0797 µg/mL | EC50 (Apolipoprotein E4 [3]): 0.0368 µg/mL | EC50 (mouse ApoE [4]): 0.089 µg/mL | EC50 (Apolipoprotein E3 [5]): 0.0991 µg/mL | Ratio pH 7.4/6.0 (EC50) (Apolipoprotein E3 [6]): 0.73 ratio | Ratio pH 7.4/6.0 (EC50) (Apolipoprotein E4 [7]): 0.46 ratio | EC50 (mouse ApoE [8]): 0.0926 µg/mL | EC50 (Apolipoprotein E3 [9]): 0.136 µg/mL

B2: BAP191-01-CPE-HC-M034D (antibody, V domains shown)
VH: QIQLVQSGPELKKPGETVKISCKASGYTFTTAGDQWVQKMPGKGFKWIGWINTHSGEPKYAEDFKGRFAFSLETSASTAYLQISNLKNEDTATYFCARMGGYAMDYWGQGTSVTVSS
VL: DIKLTQSPSSMYASLGERVTITCKASEDINSYLSWFQQKPGKSPKTLIYRANRLVDGVPSRFSGSGSGQDYSLTISSLEYEDMGIYYCLQYDEFPLTFGAGTKLELT
Ratio pH 7.4/6.0 (EC50) (mouse ApoE [1]): 3.71 ratio | EC50 (Apolipoprotein E4 [2]): 0.685 µg/mL | EC50 (Apolipoprotein E4 [3]): 2.06 µg/mL | EC50 (mouse ApoE [4]): 0.389 µg/mL | Ratio pH 7.4/6.0 (EC50) (Apolipoprotein E4 [7]): 3.01 ratio | EC50 (mouse ApoE [8]): 0.105 µg/mL

B3: BAP191.01-CPE-HC-I051D (antibody, V domains shown)
VH: QIQLVQSGPELKKPGETVKISCKASGYTFTTAGMQWVQKMPGKGFKWIGWDNTHSGEPKYAEDFKGRFAFSLETSASTAYLQISNLKNEDTATYFCARMGGYAMDYWGQGTSVTVSS
VL: DIKLTQSPSSMYASLGERVTITCKASEDINSYLSWFQQKPGKSPKTLIYRANRLVDGVPSRFSGSGSGQDYSLTISSLEYEDMGIYYCLQYDEFPLTFGAGTKLELT
notes: also called BAP191.01-CPE-HC-1051D
Ratio pH 7.4/6.0 (EC50) (mouse ApoE [1]): 3.76 ratio | EC50 (Apolipoprotein E4 [2]): 1.54 µg/mL | EC50 (Apolipoprotein E4 [3]): 4.75 µg/mL | EC50 (mouse ApoE [4]): 0.39 µg/mL | Ratio pH 7.4/6.0 (EC50) (Apolipoprotein E4 [7]): 3.07 ratio | EC50 (mouse ApoE [8]): 0.104 µg/mL

B4: BAP191.01-CPE-HC-M099E (antibody, V domains shown)
VH: QIQLVQSGPELKKPGETVKISCKASGYTFTTAGMQWVQKMPGKGFKWIGWINTHSGEPKYAEDFKGRFAFSLETSASTAYLQISNLKNEDTATYFCAREGGYAMDYWGQGTSVTVSS
VL: DIKLTQSPSSMYASLGERVTITCKASEDINSYLSWFQQKPGKSPKTLIYRANRLVDGVPSRFSGSGSGQDYSLTISSLEYEDMGIYYCLQYDEFPLTFGAGTKLELT
Ratio pH 7.4/6.0 (EC50) (mouse ApoE [1]): 2.75 ratio | EC50 (Apolipoprotein E4 [2]): 2.93 µg/mL | EC50 (Apolipoprotein E4 [3]): 6890 µg/mL | EC50 (mouse ApoE [4]): 1.58 µg/mL | Ratio pH 7.4/6.0 (EC50) (Apolipoprotein E4 [7]): 2350 ratio | EC50 (mouse ApoE [8]): 0.573 µg/mL

B5: BAP191.01-CPE-HC-M104E (antibody, V domains shown)
VH: QIQLVQSGPELKKPGETVKISCKASGYTFTTAGMQWVQKMPGKGFKWIGWINTHSGEPKYAEDFKGRFAFSLETSASTAYLQISNLKNEDTATYFCARMGGYAEDYWGQGTSVTVSS
VL: DIKLTQSPSSMYASLGERVTITCKASEDINSYLSWFQQKPGKSPKTLIYRANRLVDGVPSRFSGSGSGQDYSLTISSLEYEDMGIYYCLQYDEFPLTFGAGTKLELT
Ratio pH 7.4/6.0 (EC50) (mouse ApoE [1]): 2.25 ratio | EC50 (Apolipoprotein E4 [2]): 4.2 µg/mL | EC50 (Apolipoprotein E4 [3]): 68700 µg/mL | EC50 (mouse ApoE [4]): 2.45 µg/mL | EC50 (Apolipoprotein E3 [5]): 9.25 µg/mL | Ratio pH 7.4/6.0 (EC50) (Apolipoprotein E3 [6]): 2.95 ratio | Ratio pH 7.4/6.0 (EC50) (Apolipoprotein E4 [7]): 18400 ratio | EC50 (mouse ApoE [8]): 1.09 µg/mL | EC50 (Apolipoprotein E3 [9]): 3.13 µg/mL

B6: BAP191.01-CPE-HC-R098E (antibody, V domains shown)
VH: QIQLVQSGPELKKPGETVKISCKASGYTFTTAGMQWVQKMPGKGFKWIGWINTHSGEPKYAEDFKGRFAFSLETSASTAYLQISNLKNEDTATYFCAEMGGYAMDYWGQGTSVTVSS
VL: DIKLTQSPSSMYASLGERVTITCKASEDINSYLSWFQQKPGKSPKTLIYRANRLVDGVPSRFSGSGSGQDYSLTISSLEYEDMGIYYCLQYDEFPLTFGAGTKLELT
Ratio pH 7.4/6.0 (EC50) (mouse ApoE [1]): 2.53 ratio | EC50 (Apolipoprotein E4 [2]): 4.36 µg/mL | EC50 (Apolipoprotein E4 [3]): 18.9 µg/mL | EC50 (mouse ApoE [4]): 0.413 µg/mL | Ratio pH 7.4/6.0 (EC50) (Apolipoprotein E4 [7]): 4.33 ratio | EC50 (mouse ApoE [8]): 0.163 µg/mL

B7: BAP191.01-CPE-LC-P095D (antibody, V domains shown)
VH: QIQLVQSGPELKKPGETVKISCKASGYTFTTAGMQWVQKMPGKGFKWIGWINTHSGEPKYAEDFKGRFAFSLETSASTAYLQISNLKNEDTATYFCARMGGYAMDYWGQGTSVTVSS
VL: DIKLTQSPSSMYASLGERVTITCKASEDINSYLSWFQQKPGKSPKTLIYRANRLVDGVPSRFSGSGSGQDYSLTISSLEYEDMGIYYCLQYDEFDLTFGAGTKLELT
Ratio pH 7.4/6.0 (EC50) (mouse ApoE [1]): 1.67 ratio | EC50 (Apolipoprotein E4 [2]): 0.0893 µg/mL | EC50 (Apolipoprotein E4 [3]): 0.147 µg/mL | EC50 (mouse ApoE [4]): 0.244 µg/mL | EC50 (Apolipoprotein E3 [5]): 0.311 µg/mL | Ratio pH 7.4/6.0 (EC50) (Apolipoprotein E3 [6]): 1.27 ratio | Ratio pH 7.4/6.0 (EC50) (Apolipoprotein E4 [7]): 1.65 ratio | EC50 (mouse ApoE [8]): 0.146 µg/mL | EC50 (Apolipoprotein E3 [9]): 0.245 µg/mL

B8: BAP191.01-CPE-LC-Y091D (antibody, V domains shown)
VH: QIQLVQSGPELKKPGETVKISCKASGYTFTTAGMQWVQKMPGKGFKWIGWINTHSGEPKYAEDFKGRFAFSLETSASTAYLQISNLKNEDTATYFCARMGGYAMDYWGQGTSVTVSS
VL: DIKLTQSPSSMYASLGERVTITCKASEDINSYLSWFQQKPGKSPKTLIYRANRLVDGVPSRFSGSGSGQDYSLTISSLEYEDMGIYYCLQDDEFPLTFGAGTKLELT
EC50 (Apolipoprotein E4 [2]): 0.084 µg/mL | EC50 (Apolipoprotein E4 [3]): 0.15 µg/mL | Ratio pH 7.4/6.0 (EC50) (Apolipoprotein E4 [7]): 1.79 ratio
